Measured values reported in the supplement of paper PMC9112550, “Optimization of the antimicrobial peptide Bac7 by deep mutational scanning” (BMC Biology, 2022).

system: Escherichia coli TOP10; assay: shrunken log2 fold change of peptide-encoding DNA abundance (4.5 h post-induction vs induction); higher = less antimicrobial activity (less host growth inhibition); conditions: time post-induction: 4.5 h; library: site-saturation at positions 5, 18, 19, 20
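Also: peptides expressed intracellularly from a pBAD plasmid library in pooled LB shake-flask culture, induced with 0.3% L-arabinose, DNA abundance read by NGS, three biological replicates, DESeq2 with apeglm shrinkage.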

Point of comparison: RRIRERPPRLPRPRPRPIMWPRP, “shrunken log2 fold change” value -0.268. Against it:
- RRIRNRPPRLPRPRPRPKWLPRP — higher, -0.00522
- RRIRQRPPRLPRPRPRPLDMPRP — higher, 0.0532
- RRIRERPPRLPRPRPRPSKGPRP — within 0.2 log units, -0.35
- RRIRERPPRLPRPRPRPDSPPRP — within 0.2 log units, -0.184
- RRIRQRPPRLPRPRPRPGQRPRP — higher, 0.0565
- RRIRYRPPRLPRPRPRPCNWPRP — within 0.2 log units, -0.0748
- RRIRHRPPRLPRPRPRPEKSPRP — higher, 0.0275
- RRIRGRPPRLPRPRPRPEVMPRP — higher, 1.41
- RRIRSRPPRLPRPRPRPYRHPRP — lower, -0.542
- RRIRIRPPRLPRPRPRPWEMPRP — higher, 0.177
- RRIRFRPPRLPRPRPRPKYVPRP — lower, -0.594
- RRIRGRPPRLPRPRPRPKRMPRP — higher, 0.675
- RRIRPRPPRLPRPRPRPPSYPRP — within 0.2 log units, -0.147
- RRIRERPPRLPRPRPRPIADPRP — higher, 0.13
- RRIRQRPPRLPRPRPRPGVGPRP — higher, 0.18
- RRIRHRPPRLPRPRPRPTSHPRP — lower, -0.837
- RRIRVRPPRLPRPRPRPCTEPRP — within 0.2 log units, -0.167
- RRIRIRPPRLPRPRPRPKGSPRP — higher, 0.00745
- RRIRQRPPRLPRPRPRPHTVPRP — lower, -0.484
- RRIRQRPPRLPRPRPRPSSCPRP — higher, 0.0394
- RRIRHRPPRLPRPRPRPPCQPRP — higher, 0.0503
- RRIRVRPPRLPRPRPRPDMTPRP — higher, -0.0435
- RRIRRRPPRLPRPRPRPWTDPRP — within 0.2 log units, -0.131
- RRIRARPPRLPRPRPRPMDQPRP — within 0.2 log units, -0.194
- RRIRHRPPRLPRPRPRPPFTPRP — within 0.2 log units, -0.176
- RRIRCRPPRLPRPRPRPQTPPRP — higher, 0.48
- RRIRYRPPRLPRPRPRPVMGPRP — higher, -0.0133
- RRIRRRPPRLPRPRPRPVCNPRP — higher, 0.181
- RRIRRRPPRLPRPRPRPRDPPRP — higher, 0.74
- RRIRDRPPRLPRPRPRPPVMPRP — within 0.2 log units, -0.435
- RRIRWRPPRLPRPRPRPFRDPRP — within 0.2 log units, -0.196
- RRIRQRPPRLPRPRPRPTQFPRP — higher, 0.14
- RRIRKRPPRLPRPRPRPFYDPRP — higher, 0.0223
- RRIRLRPPRLPRPRPRPKCIPRP — lower, -0.9
- RRIRQRPPRLPRPRPRPAIMPRP — within 0.2 log units, -0.159
- RRIRQRPPRLPRPRPRPNDYPRP — within 0.2 log units, -0.179
- RRIRCRPPRLPRPRPRPRAYPRP — within 0.2 log units, -0.35
- RRIRKRPPRLPRPRPRPWAHPRP — higher, 4.43
- RRIRIRPPRLPRPRPRPTDNPRP — lower, -0.964
- RRIRWRPPRLPRPRPRPQTYPRP — lower, -1.17
- RRIRYRPPRLPRPRPRPHIEPRP — lower, -1.47
- RRIRYRPPRLPRPRPRPDNCPRP — higher, -0.0299
- RRIRVRPPRLPRPRPRPECYPRP — higher, -0.035
- RRIRIRPPRLPRPRPRPTASPRP — higher, 0.132
- RRIRLRPPRLPRPRPRPMHSPRP — within 0.2 log units, -0.13
- RRIRGRPPRLPRPRPRPKDHPRP — higher, 0.465
- RRIRIRPPRLPRPRPRPNEDPRP — lower, -0.488
- RRIRHRPPRLPRPRPRPEQWPRP — higher, 0.0101
- RRIRERPPRLPRPRPRPSELPRP — higher, 0.0285
- RRIRLRPPRLPRPRPRPPVSPRP — higher, 0.11
- RRIRDRPPRLPRPRPRPQYQPRP — within 0.2 log units, -0.156
- RRIRMRPPRLPRPRPRPGRFPRP — higher, 0.0931
- RRIRHRPPRLPRPRPRPWYCPRP — higher, -0.0324
- RRIRKRPPRLPRPRPRPRSWPRP — higher, 0.833
- RRIRWRPPRLPRPRPRPIGQPRP — higher, 0.00299
- RRIRARPPRLPRPRPRPWCAPRP — higher, 0.147
- RRIRMRPPRLPRPRPRPRGTPRP — higher, 1.36
- RRIRCRPPRLPRPRPRPVMFPRP — within 0.2 log units, -0.154
- RRIRYRPPRLPRPRPRPRCMPRP — within 0.2 log units, -0.425
- RRIRVRPPRLPRPRPRPYLYPRP — lower, -1.05
- RRIRARPPRLPRPRPRPMYVPRP — higher, -0.0341
- RRIRFRPPRLPRPRPRPLYAPRP — within 0.2 log units, -0.119
- RRIRPRPPRLPRPRPRPHRCPRP — within 0.2 log units, -0.299
- RRIRHRPPRLPRPRPRPIHWPRP — higher, -0.0298
- RRIRKRPPRLPRPRPRPRWRPRP — higher, 0.658
- RRIRHRPPRLPRPRPRPRNAPRP — higher, 0.184
- RRIRSRPPRLPRPRPRPITLPRP — within 0.2 log units, -0.333
- RRIRNRPPRLPRPRPRPMYNPRP — lower, -0.693
- RRIRLRPPRLPRPRPRPDNCPRP — within 0.2 log units, -0.0891
- RRIRQRPPRLPRPRPRPQVWPRP — higher, -0.0346
- RRIRPRPPRLPRPRPRPWFGPRP — higher, -0.0238
- RRIRFRPPRLPRPRPRPVCEPRP — higher, 0.182
- RRIRHRPPRLPRPRPRPAWQPRP — higher, 0.0329
- RRIRYRPPRLPRPRPRPIPNPRP — within 0.2 log units, -0.336
- RRIRSRPPRLPRPRPRPYQDPRP — higher, 0.0107
- RRIRWRPPRLPRPRPRPTMEPRP — higher, 0.00667
- RRIRQRPPRLPRPRPRPHKWPRP — within 0.2 log units, -0.2
- RRIRIRPPRLPRPRPRPGYDPRP — lower, -0.576
- RRIRFRPPRLPRPRPRPIWMPRP — within 0.2 log units, -0.226
- RRIRSRPPRLPRPRPRPNKFPRP — within 0.2 log units, -0.36
- RRIRRRPPRLPRPRPRPESFPRP — higher, 0.0965
- RRIRIRPPRLPRPRPRPWMWPRP — higher, 0.0832
- RRIRTRPPRLPRPRPRPGYCPRP — within 0.2 log units, -0.184
- RRIRGRPPRLPRPRPRPDFEPRP — higher, 0.988
- RRIRWRPPRLPRPRPRPPITPRP — within 0.2 log units, -0.173
- RRIRCRPPRLPRPRPRPNPPPRP — higher, 0.557
- RRIRLRPPRLPRPRPRPAGHPRP — higher, -0.0387
- RRIRTRPPRLPRPRPRPVMYPRP — higher, 0.0131
- RRIRVRPPRLPRPRPRPVMCPRP — higher, -0.0631
- RRIRTRPPRLPRPRPRPAQHPRP — higher, 0.0266
- RRIRNRPPRLPRPRPRPFTMPRP — within 0.2 log units, -0.149
- RRIRWRPPRLPRPRPRPELIPRP — higher, 1.56
- RRIRARPPRLPRPRPRPPGIPRP — higher, 0.331
- RRIRIRPPRLPRPRPRPEQMPRP — higher, 0.224
- RRIRVRPPRLPRPRPRPYLFPRP — higher, 0.0655
- RRIRCRPPRLPRPRPRPGVKPRP — higher, -0.0157
- RRIRPRPPRLPRPRPRPVMAPRP — within 0.2 log units, -0.128
- RRIRNRPPRLPRPRPRPAVVPRP — higher, 0.251
- RRIRSRPPRLPRPRPRPQYHPRP — lower, -0.9
- RRIRFRPPRLPRPRPRPAWNPRP — higher, 0.291
- RRIRGRPPRLPRPRPRPQWYPRP — higher, 0.25
- RRIRWRPPRLPRPRPRPYKDPRP — within 0.2 log units, -0.33
- RRIRRRPPRLPRPRPRPLKWPRP — within 0.2 log units, -0.107
- RRIRTRPPRLPRPRPRPVRNPRP — higher, 0.509
- RRIRDRPPRLPRPRPRPTVIPRP — within 0.2 log units, -0.118
- RRIRIRPPRLPRPRPRPLNKPRP — within 0.2 log units, -0.398
- RRIRIRPPRLPRPRPRPAWEPRP — within 0.2 log units, -0.143
- RRIRIRPPRLPRPRPRPKDMPRP — within 0.2 log units, -0.221
- RRIRVRPPRLPRPRPRPMQCPRP — higher, 0.0658
- RRIRKRPPRLPRPRPRPHDIPRP — higher, 0.168
- RRIRDRPPRLPRPRPRPFQHPRP — within 0.2 log units, -0.202
- RRIRHRPPRLPRPRPRPNKFPRP — within 0.2 log units, -0.284
- RRIRNRPPRLPRPRPRPAIKPRP — within 0.2 log units, -0.383
- RRIRWRPPRLPRPRPRPDSAPRP — higher, 0.139
- RRIRNRPPRLPRPRPRPEHNPRP — lower, -0.486
- RRIRLRPPRLPRPRPRPSDHPRP — within 0.2 log units, -0.293
- RRIRDRPPRLPRPRPRPNHNPRP — lower, -0.539
- RRIRRRPPRLPRPRPRPHLDPRP — higher, 0.176
- RRIRNRPPRLPRPRPRPGGHPRP — within 0.2 log units, -0.102
- RRIRNRPPRLPRPRPRPGDDPRP — higher, 0.0116
- RRIRQRPPRLPRPRPRPGENPRP — higher, -0.0193
- RRIRSRPPRLPRPRPRPNDYPRP — lower, -1.18
- RRIRFRPPRLPRPRPRPTGCPRP — higher, 0.125
- RRIRWRPPRLPRPRPRPLAFPRP — higher, 0.153
